Experimental data from patent CN117820479A (BEILAI PHARMACEUTICAL CO LTD, dated 2024).

B1: Ixekizumab (阳性对照抗体) (antibody, human IgG4 S228P, kappa, V domains shown)
VH: QVQLVQSGAEVKKPGSSVKVSCKASGYSFTDYHIHWVRQAPGQGLEWMGVINPMYGTTDYNQRFKGRVTITADESTSTAYMELSSLRSEDTAVYYCARYDYFTGTGVYWGQGTLVTVSS
VL: DIVMTQTPLSLSVTPGQPASISCRSSRSLVHSRGNTYLHWYLQKPGQSPQLLIYKVSNRFIGVPDRFSGSGSGTDFTLKISRVEAEDVGVYYCSQSTHLPFTFGQGTKLEIKR
notes: Made in house from the variable regions cloned into pcDNA3.4-hIgG4 and pcDNA3.4-hIgKc vectors; also called 对照抗体Ixekizumab; 阳性抗体
B2: 串联抗体G12-1-F8 (IL-17A特异性串联抗体) (Fc fusion)
chain: EVQLVESGGGLVQPGGSLRLSCVAWGFSFSIYSVNWYRQAPGKERELVAGITKGGLKDYADSVKGRFTISRDNAKNAVYLRMNMLKPEDTAVYYCNAGRENGYWGQGTQVAVSTGGGGSGGGGSGGGGSEVQLVESGGGLVQPGGSLRLSCAASGFSIHIYAMGWYRQAPGKQRELVATITRGGVTNNADSVKGRFTISRDNAKNTAYLQMNSLKPEDTAVYYCNAGGTNGGYWGQGTQVTVSS

How the values were obtained:
[1] = target: IL-17RA and IL-17RC co-expressed on 293F-IL-17RA-IL-17Rc-ACT1-NFκB-Luc reporter cells (UniProt Q96F46); test: FACS on cells overexpressing IL-17RA and IL-17RC
[2] = target: IL-17A重组蛋白 (Human IL-17A重组蛋白, C端6×His标签) (human, UniProt Q16552 24-155, limits assumed); test: cell-based or functional assay
Biotin-IL-17A-His = target: T1, Biotin-IL-17A-His (UniProt Q16552 24-155, biotinylated (Biotin-IL-17A-His; site not stated)); test: ELISA: antibody coated at 2 ug/mL, Biotin-IL-17A-His titrated from 10 ug/mL in 5-fold steps (7 points), HRP-streptavidin, OD450
T1 construct: also called 靶蛋白; not shown: His tag
T1 sequence (Q16552 24-155 limits assumed): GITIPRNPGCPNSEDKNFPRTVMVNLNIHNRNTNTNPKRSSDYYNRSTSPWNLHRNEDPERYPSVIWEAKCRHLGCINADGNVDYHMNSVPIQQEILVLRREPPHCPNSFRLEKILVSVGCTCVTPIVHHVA

IL-17A重组蛋白 (Human IL-17A重组蛋白, C端6×His标签) (human, UniProt Q16552 24-155, limits assumed), sequence (Q16552 other isoform, or with tags, fused parts or gaps limits assumed): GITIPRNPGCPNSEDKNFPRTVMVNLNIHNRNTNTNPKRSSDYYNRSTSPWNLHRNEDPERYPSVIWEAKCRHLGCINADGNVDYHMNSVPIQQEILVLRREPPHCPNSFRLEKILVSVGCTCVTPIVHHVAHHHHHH

Molecule | 阳性率 [1] | IC50, 阻断Human IL-17A蛋白激活293F-IL-17RA-IL-17Rc-ACT1-NFκB-Luc (luciferase reporter) [2] | EC50 (Biotin-IL-17A-His)
IL-17A重组蛋白 (Human IL-17A重组蛋白, C端6×His标签) (from UniProt Q16552 24-155) (ligand) | > 90% |  | 
B1 |  | 1.36 µg/mL | 10.1 µg/mL
B2 |  | 0.759 µg/mL | 2.42 µg/mL
